Experimental data: patent US8658382B2, “Proteins with pteridine glycosyltransferase activity and analysis method using the same” (Inje University Industry-Academic Cooperation Foundation, priority 2008, dated 2014)
“Also recorded” adds a separate entry of the source.

Key:
BGluT = test: Pteridines as substrate or competitive inhibitor of the BGluT reaction; assay type: biochemical, Synechococcus sp. PCC 7942; conditions: for glucosylated product formed from the pteridine as substrate of BGluT: pteridine concentration increased to 5 μM, data not shown
Procedure: Unless otherwise specified, the following standard reaction conditions were used for the determination of tetrahydrobiopterin and its oxidized forms. Reactions were carried out in a final volume of 100 μl, which consisted of 50 mM Tris-HCl (pH 7.5), 10 mM MgCl2, 0.05% ascorbic acid, 500 μM UDP-glucose, 1 μg of BGluT, and an aliquot of pteridines or tissue extracts. The reaction mixture was incubated for 20 minutes at 37° C. and then mixed with 30 μl of acidic iodine solution (2% KIM % I2 in 1 N HCl). After 1 hour in the dark at room temperature, the oxidized mixture was centrifuged. The supernatant was mixed with 10 μl of 5% ascorbic acid and then neutralized with 30 μl of 1 N NaOH for injection to HPLC.
(§1) The HPLC system consisted of Gilson 321 pump, Gilson 234 autoinjector, a fluorescence detector (Schimadzu RF-10AXL), and a system software (Gilson Unipoint version 5.11). Chromatography was performed on a guard column (10 μm, 4.3 mm×1 cm) and an Inertsil ODS-3 (5 μm, 150×2.3 mm, GL Science, Japan) equilibrated with 10 mM potassium phosphate buffer (pH 6.0) at room temperature. Pteridines were eluted isocratically at a flow rate of 1.2 ml/min and monitored at 350/450 nm (excitation/emission). Pteridine peaks were identified and quantified using authentic pteridines, which were purchased from Dr. B. Schirck's Lab (Jona, Switzerland). Biopterin-glucoside was isolated from Synechococcus sp. PCC 7942 (Y. K. Choi, Y. K. Hwang, Y. H. Kang, Y. S. Park, Chemical structure of 1-O-(L-erythro-biopterin-2′-yl)-alpha-glucose isolated from a cyanobacterium Synechococcus sp. PCC 7942, Pteridines, 12 (2001) 121-125).
To determine whether the presence of dihydrobiopterin, structurally similar to tetrahydrobiopterin, interferes with glucosylation of tetrahydrobiopterin, 1 μM of dihydrobiopterin was added to the same mixture for enzyme reaction as in FIG. 1B, which was then oxidized under acidic condition.
Biological samples contain tetrahydrobiopterin as well as its oxidized forms (dihydrobiopterin and bipterin). In order to quantitatively analyze only tetrahydrobiopterin selectively using BGluT, the BGluT reaction should be specific to tetrahydrobiopterin, without being interfered by its oxidized forms. Using various pteridines (dihydrobiopterin, biopterin, neopterin, tetrahydroneopterin, and isomers thereof) as a substrate, potential inhibitory effect was evaluated. […] It therefore was suspected that dihydrobiopterin might function as a competitive inhibitor in glucosylation of tetrahydrobiopterin by BGluT.
However, when the concentration of dihydrobiopterin is higher than tetrahydrobiopterin, dihydrobiopterin could show inhibitory effects. In order to examine whether dihydrobiopterin interferes with the BGluT reaction, dihydrobiopterin was coincubated under the standard reaction condition with a fixed amount (0.25 μM) of tetrahydrobiopterin, along with increasing concentrations of dihydrobiopterin up to 4-fold (0.05˜1 μM) (see FIG. 4). In FIG. 4, the X-axis represents concentrations of dihydrobiopterin added to the reaction solution and the Y-axis represents peak areas of the glucosylated product produced from tetrahydrobiopterin. The results thereof show means±standard deviations of the peak areas of biopterin-glucoside, which were obtained from triplicate assays. […] In general, the concentrations of the oxidized forms of tetrahydrobiopterin in a biological sample are not higher than that of tetrahydrobiopterin.
In order to examine whether the added dihydrobiopterin has been glucosylated even in small amount, the peak areas of biopterin originated from the dihydrobiopterin (X-axis) were compared with those determined from the same concentration of dihydrobiopterin without enzyme reaction (Y-axis) (FIG. 4 (insert)). The slope obtained from regression line was almost 1.

[1] = Pteridine glycosyltransferase activity with human urine; assay type: biochemical; conditions: 1 μg protein, 10 μl human urine in 100 μl, FIG. 12
Procedure: Also, 1 μg of each protein was added to 100 μl of reaction solution containing 10 μl of human urine instead of tetrahydrobiopterin. The reaction mixture was incubated at for 20 minutes. For CY-49, 500 μM UDP-xylose was added as a substrate; and for other enzymes, UDP-glucose was added. Other reaction conditions were the same as in the above.

[2] = Analysis of protein activity of the recombinant proteins with UDP-glycosides; assay type: biochemical; conditions: for pteridine glycosyltransferase activity (sugar bound to tetrahydrobiopterin): 1 μM tetrahydrobiopterin, 500 μM UDP-glycoside, HPLC, FIG. 10
Procedure: The protein activity was assayed in 100 μl of reaction mixture having the following composition: 50 mM Tris-HCl (pH 7.5), 10 mM MgCl2, 0.2% ascorbic acid, 1 μM tetrahydrobiopterin, 500 μM UDP-glycoside (one of UDP-glucose, UDP-galactose, UDP-xylose, UDP-glucuronic acid, UDP-galacturonic acid, UDP-N-acetylglucosamine, and UDP-N-acetylgalactosamine) and an appropriate amount of the purified recombinant protein. The reaction was performed at 37 for 10-60 minutes depending on an amount of protein. 30 μl of acidic iodine solution (2%/1% KI/I2 in 1 M HCl) was added to the reaction mixture and allowed in darkness for 1 hour for oxidation thereof. The mixture was centrifuged to recover the supernatant, which was then mixed with 10 μl of 5% ascorbic acid. 30 μl of 1N NaOH was added to the resulting mixture for neutralization and then HPLC analysis was carried out.
as §1, with “HPLC” for “The HPLC”, “quantified by” for “quantified”

[3] = Characterization of enzyme activity by amount of protein, compared with BGluT; assay type: biochemical; conditions: production of tetrahydrobiopterin-glycoside by amount of protein (0.05-1.0 μg), FIG. 11
Procedure: The enzymatic activities for the isolated proteins were compared with that of BGluT. First, production profiles of tetrahydrobiopterin(BH4)-glucoside produced according to amounts of the proteins was compared with that of BGluT. The enzyme activities were represented as a percentage to all converted amounts. The reaction condition was as follows. That is, reactions were performed in a final volume of 100 μl, which consisted of 50 mM Tris-HCl (pH 7.5), 10 mM MgCl2, 0.05% ascorbic acid, 1 μM tetrahydrobiopterin, 500 μM UDP-glucose or UDP-xylose, and a protein (0.05-1.0 μg). The reaction mixture was incubated at 37 for 20 minutes. 30 μl of acidic iodine solution (2%/1% KI/I2 in 1 M HCl) was added thereto in darkness for 1 hour at room temperature, so as to oxidize the reaction mixture. After centrifugation, the resulting supernatant was mixed with 10 μl of 5% ascorbic acid and neutralized with 30 μl of 1N NaOH for injection to HPLC.

Nc1nc2ncc([C@H](O)[C@H](O)CO)nc2c(=O)[nH]1 [neopterin]
glucosylated product formed from the pteridine as substrate of BGluT (BGluT): only dihydrobiopterin among the pteridines showed

biopterin
glucosylated product formed from the pteridine as substrate of BGluT (BGluT): only dihydrobiopterin among the pteridines showed

C[C@H](O)[C@H](O)C1=Nc2c(nc(N)[nH]c2=O)NC1 [dihydrobiopterin]
slope of regression line, biopterin-glucoside peak area against dihydrobiopterin concentration (BGluT; 0.25 μM tetrahydrobiopterin, 0.05~1 μM dihydrobiopterin, standard reaction condition, FIG. 4): zero | effect of added dihydrobiopterin on glucosylation of tetrahydrobiopterin (BGluT; 1 μM dihydrobiopterin added, FIG. 1C): no significant difference in the amounts of glucosylated products of tetrahydrobiopterin | slope of regression line, biopterin from dihydrobiopterin with BGluT against without enzyme reaction (BGluT; FIG. 4 (insert)): ~1 | glucosylated product formed from the pteridine as substrate of BGluT (BGluT): a small amount of glucosylated product

Nc1nc2c(c(=O)[nH]1)NC(C(O)C(O)CO)CN2 (centres unmarked) [tetrahydroneopterin]
glucosylated product formed from the pteridine as substrate of BGluT (BGluT): only dihydrobiopterin among the pteridines showed

B1: UICA: recombinant pteridine glycosyltransferase from unidentified wild cyanobacteria A, amino acid SEQ ID NO 4 (protein)
chain: LSRKLLFLSTPVGFLGSGGGGGVELTIYNLARTLNKQGYAVRVVAPEASQLQDIPLITIAGNAQISAQSQDREAPILIPENAVLANMWHYAQQVQNEYDLIVNFAYDWLPFYLTPFFATPVAHLVSMASVSLAMDNIIQKTYRSFPHSLAFHTVTQAETFSLSPPYRRLANGLDVSLYQFRADPSPCLAWVGRIAPEKALEGAIAACQQLGVPLRVFGHISNPLYWQNLQDTYSFDLVDYRGFLPTGSLQKELGDCFGLLMTPGWVEAFGNVAIEALACGVPVVAYRRGGPVEIIEEGKTGFLVEPDSIEGLVTGIKNLDRIDRYSCRAVVEQKYSLEALANRAINWFDEIFARKK
modifications: Unidentified cyanobacteria sp.
HPLC chromatogram of the reaction mixture with human urine [1]: very similar to that of BGluT | Substrate for glucosylation [2]: Glucose | pteridine glycosyltransferase activity (sugar bound to tetrahydrobiopterin) [2]: an activity for binding glucose to tetrahydrobiopterin

B2: UICB: recombinant pteridine glycosyltransferase from unidentified wild cyanobacteria B, amino acid SEQ ID NO 5 (protein)
chain: LSRKLLFLSTPVGFLGSGDGGGVELTIYNLARTLNKQGYAVRVAAPEASQLQDIPLITMAGNAQISAQSQGREAPILMPENAVLANMWHYAQQVQKQYDLIVNFAYDWLPFYLTPFFATPVAHLVSMASVSLAMDHINEKTYSNFPHLLAFHTLAQAETFSLSPPYRCLANGLDVSLYQFRDDPSPCLAWVGRIAPEKALEDAIAACQQLGVPLRVFGHISDPLYWQNSQDTYSFDLVDYRGFLPTGSLQKELGDCFGLLMTPRWVEAFGNVAIEALACGVPVVAYRRGGPVEIIEEGKTGFLVEPDSIEGLVTGIKNLDRIDRYSCRAVVEQKYSLEASANRAINWFEEIFARKK
modifications: Unidentified cyanobacteria sp.
HPLC chromatogram of the reaction mixture with human urine [1]: very similar to that of BGluT | Substrate for glucosylation [2]: Glucose | pteridine glycosyltransferase activity (sugar bound to tetrahydrobiopterin) [2]: an activity for binding glucose to tetrahydrobiopterin

B3: CY-7: recombinant pteridine glycosyltransferase from Spirulina platensis CY-7, amino acid SEQ ID NO 2 (protein)
chain: MTPTSWKLLFISTPVGPLGSGLGGGVELTLLNMAKALKSRGHDITVVAPSGSVLESLSIIEIPGELQPIAQNQDRDSLITIPENSVLGNMWEYGRQVQTNYHAIVNFAFDWLPFYLTPFFDTPIAHCVSMASLISALDQIVGQVMKQFPGTVGFHSHTQAATFGSDLDYACLGSGLEMERYQFCEQPHQQLAWMGRISPEKGLEDAIAAADKTGIPLEIFGKIQDDQYWQNILNTYPNAPLNYRGFLNTDELQQGLRQCRGLLMTHRWVEAFGNVAIEALACGVPVISYRRGGPAEIVRDGETGWLVEPDSVTGLVDAIAKFEQIDRRQCRAVAEKEYSLAALGDRLEKWLSDVTRLKN
modifications: Spirulina platensis CY-7
activity compared with BGluT [3]: higher activities than BGluT; also recorded: more excellent activity than BGluT | HPLC chromatogram of the reaction mixture with human urine [1]: very similar to that of BGluT | Substrate for glucosylation [2]: Glucose | pteridine glycosyltransferase activity (sugar bound to tetrahydrobiopterin) [2]: an activity for binding glucose to tetrahydrobiopterin
